Literature values as cited in patent publication US10920265B2, “Compounds and methods for detection of enzymes that remove methyl succinyl groups from epsilon-amino lysine moieties” (Enzo Life Sciences, Inc., priority 2011, dated 2021).
No end group written: not given here.

Experiments:
Details in all cases: varied NAD^+, Du et al., 2009; cited from earlier work
SIRT2 = molecular target: T1, SIRT2 (Homo sapiens, UniProt Q8IXJ6)
T1 sequence (Q8IXJ6 1-389): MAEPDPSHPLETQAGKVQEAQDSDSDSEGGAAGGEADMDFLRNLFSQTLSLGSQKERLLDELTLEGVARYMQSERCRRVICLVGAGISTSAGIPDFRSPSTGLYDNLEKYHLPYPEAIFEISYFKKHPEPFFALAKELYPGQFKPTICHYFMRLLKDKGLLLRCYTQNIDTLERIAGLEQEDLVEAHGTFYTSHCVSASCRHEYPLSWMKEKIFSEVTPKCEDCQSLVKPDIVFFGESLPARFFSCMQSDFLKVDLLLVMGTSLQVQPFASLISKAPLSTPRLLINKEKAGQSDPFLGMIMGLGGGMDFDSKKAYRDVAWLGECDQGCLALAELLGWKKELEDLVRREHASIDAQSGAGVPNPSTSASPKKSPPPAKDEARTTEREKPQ

SIRT3 = molecular target: T2, SIRT3 (Homo sapiens, UniProt Q9NTG7)
T2 construct: purchased ENZO Life Sciences BML-SE270
T2 sequence (Q9NTG7 1-399): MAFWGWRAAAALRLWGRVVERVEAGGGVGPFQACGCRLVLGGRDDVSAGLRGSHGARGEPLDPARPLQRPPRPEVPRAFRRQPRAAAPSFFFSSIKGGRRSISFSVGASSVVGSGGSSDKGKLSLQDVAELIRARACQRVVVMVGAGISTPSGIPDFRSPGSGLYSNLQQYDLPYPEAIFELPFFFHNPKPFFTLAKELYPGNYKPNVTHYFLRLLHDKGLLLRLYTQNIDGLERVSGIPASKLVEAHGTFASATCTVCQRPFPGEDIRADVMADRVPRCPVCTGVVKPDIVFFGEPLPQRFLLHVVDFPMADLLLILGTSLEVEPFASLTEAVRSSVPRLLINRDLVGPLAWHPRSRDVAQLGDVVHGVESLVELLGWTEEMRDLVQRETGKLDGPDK

SIRT5 = molecular target: T3, SIRT5 (Homo sapiens, UniProt Q9NXA8); design: purchased Enzo Life Sciences BML-SE555
T3 sequence (Q9NXA8 37-310): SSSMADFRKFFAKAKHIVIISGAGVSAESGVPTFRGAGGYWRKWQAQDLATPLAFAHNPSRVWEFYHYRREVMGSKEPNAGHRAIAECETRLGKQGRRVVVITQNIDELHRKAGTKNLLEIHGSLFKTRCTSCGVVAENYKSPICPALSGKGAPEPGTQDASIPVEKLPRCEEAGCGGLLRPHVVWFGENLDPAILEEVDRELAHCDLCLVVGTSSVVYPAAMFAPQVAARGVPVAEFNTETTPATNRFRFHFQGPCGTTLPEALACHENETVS

SIRT1 = molecular target: T4, SIRT1 (Homo sapiens, UniProt Q96EB6)
T4 construct: purchased ENZO Life Sciences BML-SE239
T4 sequence (Q96EB6 1-747): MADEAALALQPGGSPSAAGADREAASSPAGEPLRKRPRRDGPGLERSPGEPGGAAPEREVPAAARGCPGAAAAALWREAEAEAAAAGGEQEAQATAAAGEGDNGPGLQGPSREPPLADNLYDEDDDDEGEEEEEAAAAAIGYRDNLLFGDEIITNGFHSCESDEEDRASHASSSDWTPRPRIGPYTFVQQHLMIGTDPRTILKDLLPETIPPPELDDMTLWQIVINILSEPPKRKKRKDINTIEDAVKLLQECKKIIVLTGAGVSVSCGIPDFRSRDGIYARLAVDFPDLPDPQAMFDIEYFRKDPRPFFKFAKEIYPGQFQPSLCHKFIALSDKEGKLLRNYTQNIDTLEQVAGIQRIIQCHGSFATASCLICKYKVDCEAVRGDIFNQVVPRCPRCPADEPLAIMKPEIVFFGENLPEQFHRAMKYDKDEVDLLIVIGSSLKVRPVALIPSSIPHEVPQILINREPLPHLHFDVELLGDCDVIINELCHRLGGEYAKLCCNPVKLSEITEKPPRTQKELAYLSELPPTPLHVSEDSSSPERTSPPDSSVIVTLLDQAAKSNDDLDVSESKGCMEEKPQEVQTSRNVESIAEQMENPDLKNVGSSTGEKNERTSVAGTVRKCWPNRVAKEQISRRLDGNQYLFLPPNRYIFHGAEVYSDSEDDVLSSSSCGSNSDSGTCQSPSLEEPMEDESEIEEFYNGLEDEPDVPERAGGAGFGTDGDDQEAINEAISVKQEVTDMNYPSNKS

Hist. H3 4-15, K9Ac: unlabeled peptide, histone H3 residues 4-15 acetylated on lysine-9 (KQTARK(Ac)STGGKA; UniProt P68431 5-16, looked up, fragment)
kcat (SIRT2): 0.021 s⁻¹
kcat (SIRT3): 0.009 s⁻¹
kcat (SIRT5): 0.003 s⁻¹
kcat (SIRT1): 0.079 s⁻¹
